Measurements from patent publication US20210388087A1 (Chugai, published 2021).

Target: human CD137 on HDLM-2 cells (human, UniProt Q07011 24-255)
Test: cell-based or functional assay

human CD137 on HDLM-2 cells, sequence (Q07011 24-255): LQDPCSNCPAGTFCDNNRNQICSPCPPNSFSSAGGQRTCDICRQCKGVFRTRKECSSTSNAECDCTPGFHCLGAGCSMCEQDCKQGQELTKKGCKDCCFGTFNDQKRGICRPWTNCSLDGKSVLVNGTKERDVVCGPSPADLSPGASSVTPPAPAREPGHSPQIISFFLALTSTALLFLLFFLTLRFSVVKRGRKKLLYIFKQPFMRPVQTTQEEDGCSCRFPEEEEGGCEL

Agonistic activity compared to B, antibody 6 ug/mL: 3.21%
Agonistic activity compared to B, antibody 30 ug/mL: 15.8%
Agonistic activity compared to Ctrl, antibody 6 ug/mL: 11.1%
Agonistic activity compared to Ctrl, antibody 30 ug/mL: 59.8%
hIL-6 (pg/mL), antibody 6 ug/mL: 1130 pg/mL
hIL-6 (pg/mL), antibody 30 ug/mL: 1450 pg/mL
B1: GPC3 ERY22-dBBDu_183/L072 (bispecific antibody, human IgG1, kappa, L234A L235A, N297A)
heavy 1: DIVMTQSPLSLPVTPGEPASISCRSSQSLVHSNRNTYLHWYQQKPGQAPRLLIYKVSNRFSGVPDRFSGSGSGTDFTLKISRVEAEDVGVYYCSQNTHVPPTFGQGTKLEIKSSASTKGPSVFPLAPSSKSTSGGTAALGCLVKDYFPEPVTVSWNSGALTSGVHTFPAVLQSSGLYSLSSVVTVPSSSLGTQTYICNVNHKPSNTKVDKKVEPKSCDKTHTCPPCPAPEAAGGPSVFLFPPKPKDTLMISRTPEVTCVVVDVSHEDPEVKFNWYVDGVEVHNAKTKPREEQYASTYRVVSVLTVLHQDWLNGKEYKCKVSNKALPAPIEKTISKAKGQPREPQVCTLPPSRDELTKNQVSLWCLVKGFYPSDIAVEWESNGQPENNYKTTPPVLDSDGSFFLYSKLTVDKSRWQQGNVFSCSVMHEALHNHYTQKSLSLSPHHHHHHHH
light 1: QVQLVQSGAEVKKPGASVKVSCKASGYTFTDYEMHWIRQPPGQGLEWIGAIDPKTGDTAYSQKFKGRVTLTADKSTSTAYMELSSLTSEDTAVYYCTRFYSYTYWGQGTLVTVSSASVAAPSVFIFPPSDEQLKSGTASVVCLLNNFYPREAKVQWKVDNALQSGNSQESVTEQDSKDSTYSLSSTLTLSKADYEKHKVYACEVTHQGLSSPVTKSFNRGEC
heavy 2: QVQLVESGGGLVQPGRSLRLSCAASGFTFSNAWMHWVRQAPGKGLEWVAQIKDKGNAYAAYYAPSVKGRFTISRDDSKNSIYLQMNSLKTEDTAVYYCHYVHYASASTVLPAFGVDAWGQGTTVTVSSASTKGPSVFPLAPSSKSTSGGTAALGCLVKDYFPEPVTVSWNSGALTSGVHTFPAVLQSSGLYSLSSVVTVPSSSLGTQTYICNVNHKPSNTKVDKKVEPKSCDKTHTCPPCPAPEAAGGPSVFLFPPKPKDTLMISRTPEVTCVVVDVSHEDPEVKFNWYVDGVEVHNAKTKPREEQYASTYRVVSVLTVLHQDWLNGKEYKCKVSNKALPAPIEKTISKAKGQPREPQVYTLPPSRCELTKNQVSLSCAVKGFYPSDIAVEWESNGQPENNYKTTPPVLDSDGSFFLVSKLTVDKSRWQQGNVFSCSVMHEALHNHYTQKSLSLSPDYKDDDDK
light 2: DIVMTQSPLSLPVTPGEPASISCQASQELVHMNRNTYLHWYQQKPGQAPRLLIYKVSNRFPGVPDRFSGSGSGTDFTLKISRVEAEDVGVYYCAQGTSVPFTFGQGTKLEIKRTVAAPSVFIFPPSDEQLKSGTASVVCLLNNFYPREAKVQWKVDNALQSGNSQESVTEQDSKDSTYSLSSTLTLSKADYEKHKVYACEVTHQGLSSPVTKSFNRGEC
